Laboratory results published in publication PMC3447402.

Target: acyl-carrier-protein synthase (AcpS) from Staphylococcus aureus (Staphylococcus aureus)
Experiment: crystal structure

## acyl-carrier-protein synthase (AcpS) from Staphylococcus aureus (enzyme)
  stoichiometry N: 3
